# Assays:
# [1] = target: T1, human CD47, cell surface (Raji, CCRF-CEM, Daudi cells) (human, UniProt Q08722 19-323); assay: summary of the binding and blocking assays
# T1 construct: Endogenous CD47 on human cell lines; also called cell surface CD47; endogenous (cell surface) form of CD47
# [2] = target: T1, human CD47, cell surface (Raji, …); assay: flow cytometry on Raji cells; apparent KD from non-linear fit of median fluorescence intensities
binding result [1],Kd [2],Binder
binds,,"9E4 antibody (murine) (antibody, mouse IgG1, V domains shown) VH: EVQLRQSGPELVKPGASVKISCKASGYSFTDYYMYWVKQSRVRSLAWIGRINPYTGATGYDQNFKDKASLIVDKSSSTAYMELRSLTSEDSAVYYCARGRNRYDGWFAYWGQGTLVTV VL: EIQMTQTTSSLSASLGDRVTISCRASQDISNYLNWYQQKPDGTVKLLIYYTSRLHSGVPSRFSGSGSGTDYSLTISNLDQEDIATYFCQQGNALPPTFGGGTNLEIK"
,3.79 nM,"B6H12 (antibody, V domains shown) VH: EVQLVESGGDLVKPGGSLKLSCAASGFTFSGYGMSWVRQTPDKRLEWVATITSGGTYTYYPDSVKGRFTISRDNAKNTLYLQIDSLKSEDTAIYFCARSLAGNAMDYWGQGTSVTVSS VL: DIVMTQSPATLSVTPGDRVSLSCRASQTISDYLHWYQQKSHESPRLLIKFASQSISGIPSRFSGSGSGSDFTLSINSVEPEDVGVYYCQNGHGFPRTFGGGTKLEIK"

# Source: patent publication EP4137518A1 (Inhibrx, Inc., dated 2023)
